Eleven molecules from patent publication US11278600B2, “Human alpha-galactosidase variants” (Codexis, Inc., priority 2014, dated 2022) can be followed below.

Substitutions are numbered along the chain they refer to.

Holding throughout (type): biochemical
The nature of data set [1]: HTP-analysis of supernatants pretreated with acid (MUGal hydrolysis). The following applies: challenge at pH 4.2; activity of the variant/activity of Rd2BB (SEQ ID NO: 10); yeast supernatant. Summed up:
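MUGal hydrolysis was tracked by fluorescence (Ex 355 nm, Em 448 nm) after a 30-180 min reaction at 37° C. in pH 4.8 McIlvaine/citrate buffer, stopped with 1 M sodium carbonate. Beforehand, yeast (INVSc1) culture supernatants carrying GLA variants were held 1-3 h at 37° C. in acidic McIlvaine buffer, pH 3.3-4.3.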

Data set [2] in a line: HTP-analysis of yeast culture supernatants, no challenge (MUGal hydrolysis). The following applies: activity of the variant/activity of Rd2BB (SEQ ID NO: 10), yeast supernatant. Summed up:
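GLA variants were expressed in INVSc1 yeast grown in SD-Ura broth with glucose at 30° C., and culture supernatants were collected after 66-84 h. Supernatant was mixed with McIlvaine buffer pH 4.8 and MUGal (2 mM stock) in 50 mM citrate, 200 mM KCl, pH 4.6, incubated at 37° C. for 30-180 minutes, then quenched with sodium carbonate.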

A short description of data set [3]: HTP-analysis of supernatants pretreated with base (MUGal hydrolysis). To be noted: challenge at pH 7.6; activity of the variant/activity of Rd2BB (SEQ ID NO: 10); yeast supernatant. In short, it runs like this:
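Supernatants from INVSc1 yeast expressing GLA variants (SD-Ura, 66-84 h, 30° C) were mixed with McIlvaine buffer pH 7.0-8.2 or 200 mM sodium bicarbonate pH 9.1-9.7 and held 1-18 h at 37° C. Residual activity was then measured on MUGal at pH 4.8/4.3, 37° C, 30-180 min, by fluorescence (Ex 355/Em 448 nm).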

B1: 199 (protein)
chain: LDNGLARTPTMGWLHWERFMCNLDCQEEPDSCISEKLFMEMAELMVSEGWKDAGYEYLCIDDCWMAPQRDSEGRLQADPQRFPHGIRQLANYVHSKGLKLGIYADVGNKTCAGFPGSFGYYDIDAQTFADWGVDLLKFDGCYCDSLENLADGYKHMSLALNRTGRSIVYSCEWPLYMWPFQKPNYTEIRQYCNHWRNFADIDDSWASIKSILDWTSFNQERIVDVAGPGGWNDPDMLVIGNFGLSWNQQVTQMALWAIMAAPLFMSNDLRHISPQAKALLQDKDVIAINQDPLGKQGYQLRQGDNFEVWERPLSGLAWAVAMINRQEIGGPRSYTIAVASLGKGVACNPGCFITQLLPVKRKLGFYEWSSRLRSHINPTGTVLLQLENTMQMSKDLLL
modifications: Synthetic Polypeptide sequence of Variant No. 199 of mature Human GLA
Turning to B1, the “Relative Activity of GLA Variants After Challenge at pH 4.2” value (shortened to “Relative Activity … at pH 4.2”) in data set [1] was “++ (++ = 1.5 to 2.5 relative activity over Rd2BB (SEQ ID NO: 10))”. In data set [2], the “Relative Activity of GLA Variants After No Challenge (NC)” value is “++ (++ = 1.5 to 2.5 relative activity over Rd2BB (SEQ ID NO: 10))”. Moreover, the “Relative Activity of GLA Variants After Challenge at pH 7.6” value (shortened to “Relative Activity … at pH 7.6”) in data set [3] is “++ (++ = 1.5 to 2.5 relative activity over Rd2BB (SEQ ID NO: 10))”.

B2: 209 (protein)
chain: B1 chain with G350A, E367P, S369D
modifications: Synthetic Polypeptide sequence of Variant No. 209 of mature Human GLA
As for B2, the “Relative Activity … at pH 4.2” value in data set [1] is “+ (+ = 0.5 to 1.5 relative activity over Rd2BB (SEQ ID NO: 10))”. Also, the “Relative Activity of GLA Variants After No Challenge (NC)” value in data set [2] was “+ (+ = 0.5 to 1.5 relative activity over Rd2BB (SEQ ID NO: 10))”. Also, in data set [3], the “Relative Activity … at pH 7.6” value is on record as “+ (+ = 0.5 to 1.5 relative activity over Rd2BB (SEQ ID NO: 10))”.

B3: 203 (protein)
chain: B1 chain with G350A, E367A, S369D
modifications: Synthetic Polypeptide sequence of Variant No. 203 of mature Human GLA
For B3, the “Relative Activity … at pH 4.2” value in data set [1] is “++ (++ = 1.5 to 2.5 relative activity over Rd2BB (SEQ ID NO: 10))”. For the same molecule, the “Relative Activity of GLA Variants After No Challenge (NC)” value in data set [2] was “++ (++ = 1.5 to 2.5 relative activity over Rd2BB (SEQ ID NO: 10))”. For the same molecule, the “Relative Activity … at pH 7.6” value in data set [3] was “+++ (+++ = >2.5 relative activity over Rd2BB (SEQ ID NO: 10))”.

B4: 206 (protein)
chain: B1 chain with G350A, E367N, S369T, K394L, D395K, L396D
modifications: Synthetic Polypeptide sequence of Variant No. 206
As to B4, the “Relative Activity … at pH 4.2” value in data set [1] is given as “+++ (+++ = >2.5 relative activity over Rd2BB (SEQ ID NO: 10))”. Further, the “Relative Activity of GLA Variants After No Challenge (NC)” value in data set [2] is “+++ (+++ = >2.5 relative activity over Rd2BB (SEQ ID NO: 10))”. Moreover, the “Relative Activity … at pH 7.6” value in data set [3] was “+++ (+++ = >2.5 relative activity over Rd2BB (SEQ ID NO: 10))”.

B5: 201 (protein)
chain: B1 chain with C143T, G350A, S369T
modifications: Synthetic Polypeptide sequence of Variant No. 201 of mature Human GLA
For B5, in data set [1], the “Relative Activity … at pH 4.2” value was “+ (+ = 0.5 to 1.5 relative activity over Rd2BB (SEQ ID NO: 10))”. The “Relative Activity of GLA Variants After No Challenge (NC)” value in data set [2] is given as “+ (+ = 0.5 to 1.5 relative activity over Rd2BB (SEQ ID NO: 10))”. In addition, the “Relative Activity … at pH 7.6” value in data set [3] is on record as “+ (+ = 0.5 to 1.5 relative activity over Rd2BB (SEQ ID NO: 10))”.

B6: 205 (protein)
chain: B1 chain with G350A, E367D, S369D, K394L, D395K, L396D
modifications: Synthetic Polypeptide sequence of Variant No. 205
As to B6, the “Relative Activity … at pH 4.2” value in data set [1] was “++ (++ = 1.5 to 2.5 relative activity over Rd2BB (SEQ ID NO: 10))”. Further, the “Relative Activity of GLA Variants After No Challenge (NC)” value in data set [2] is recorded as “++ (++ = 1.5 to 2.5 relative activity over Rd2BB (SEQ ID NO: 10))”. Besides, the “Relative Activity … at pH 7.6” value in data set [3] is reported as “++ (++ = 1.5 to 2.5 relative activity over Rd2BB (SEQ ID NO: 10))”.

B7: 207 (protein)
chain: B1 chain with G350A, E367N, S369T, R373K
modifications: Synthetic Polypeptide sequence of Variant No. 207 of mature Human GLA
On to B7, for which, in data set [1], the “Relative Activity … at pH 4.2” value is listed as “+++ (+++ = >2.5 relative activity over Rd2BB (SEQ ID NO: 10))”. In data set [2], the “Relative Activity of GLA Variants After No Challenge (NC)” value is recorded as “++ (++ = 1.5 to 2.5 relative activity over Rd2BB (SEQ ID NO: 10))”. In addition, the “Relative Activity … at pH 7.6” value in data set [3] is “+++ (+++ = >2.5 relative activity over Rd2BB (SEQ ID NO: 10))”.

B8: 204 (protein)
chain: B1 chain with G350A, E367D, S369T
modifications: Synthetic Polypeptide sequence of Variant No. 204 of mature Human GLA
B8: the “Relative Activity … at pH 4.2” value in data set [1] was “+ (+ = 0.5 to 1.5 relative activity over Rd2BB (SEQ ID NO: 10))”. The “Relative Activity of GLA Variants After No Challenge (NC)” value in data set [2] is recorded as “+ (+ = 0.5 to 1.5 relative activity over Rd2BB (SEQ ID NO: 10))”. Further, in data set [3], the “Relative Activity … at pH 7.6” value is recorded as “+ (+ = 0.5 to 1.5 relative activity over Rd2BB (SEQ ID NO: 10))”.

B9: 200 (protein)
chain: B1 chain with C143A, G350A, S369T
modifications: Synthetic Polypeptide sequence of Variant No. 200 of mature Human GLA
B9: the “Relative Activity … at pH 4.2” value in data set [1] is recorded as “+ (+ = 0.5 to 1.5 relative activity over Rd2BB (SEQ ID NO: 10))”. In data set [2], the “Relative Activity of GLA Variants After No Challenge (NC)” value is “+ (+ = 0.5 to 1.5 relative activity over Rd2BB (SEQ ID NO: 10))”. For the same molecule, the “Relative Activity … at pH 7.6” value in data set [3] is listed as “+ (+ = 0.5 to 1.5 relative activity over Rd2BB (SEQ ID NO: 10))”.

B10: 202 (protein)
chain: B1 chain with C59A, G350A, S369T
modifications: Synthetic Polypeptide sequence of Variant No. 202 of mature Human GLA
Turning to B10, the “Relative Activity … at pH 4.2” value in data set [1] is “+ (+ = 0.5 to 1.5 relative activity over Rd2BB (SEQ ID NO: 10))”. For the same molecule, the “Relative Activity of GLA Variants After No Challenge (NC)” value in data set [2] is recorded as “+ (+ = 0.5 to 1.5 relative activity over Rd2BB (SEQ ID NO: 10))”. Further, the “Relative Activity … at pH 7.6” value in data set [3] is given as “+ (+ = 0.5 to 1.5 relative activity over Rd2BB (SEQ ID NO: 10))”.

B11: 208 (protein)
chain: B1 chain with G350A, E367N, S369T, R373K, I376V
modifications: Synthetic Polypeptide sequence of Variant No. 208 of mature Human GLA
Take B11: the “Relative Activity … at pH 4.2” value in data set [1] was “+++ (+++ = >2.5 relative activity over Rd2BB (SEQ ID NO: 10))”. The “Relative Activity of GLA Variants After No Challenge (NC)” value in data set [2] is “++ (++ = 1.5 to 2.5 relative activity over Rd2BB (SEQ ID NO: 10))”. Further, in data set [3], the “Relative Activity … at pH 7.6” value was “+++ (+++ = >2.5 relative activity over Rd2BB (SEQ ID NO: 10))”.
